In US9193963B2, “Mutant endoglucanase” (Toray Industries, Inc., priority 2011, dated 2015):
Substitutions are numbered along the chain they refer to. Numbers in names are those of the source.

B1: EGPh(W273Y): comparative mutant of EGPh, the 273rd tryptophan substituted with tyrosine, SEQ ID NO: 49 (protein)
chain: MEGNTILKIVLICTILAGLFGQVVPVYAENTTYQTPTGIYYEVRGDTIYMINVTSGEETPIHLFGVNWFGFETPNHVVHGLWKRNWEDMLLQIKSLGFNAIRLPFCTESVKPGTQPIGIDYSKNPDLRGLDSLQIMEKIIKKAGDLGIFVLLDYHRIGCTHIEPLWYTEDFSEEDFINTWIEVAKRFGKYWNVIGADLKNEPHSVTSPPAAYTDGTGATWGMGNPATDWNLAAERIGKAILKVAPHWLIFVEGTQFTNPKTDSSYKWGYNAWYGGNLMAVKDYPVNLPRNKLVYSPHVYGPDVYNQPYFGPAKGFPDNLPDIWYHHFGYVKLELGYSVVIGEFGGKYGHGGDPRDVIWQNKLVDWMIENKFCDFFYWSWNPDSGDTGGILQDDWTTIWEDKYNNLKRLMDSCSKSSSSTQSVIRSTTPTKSNTSKKICGPAILIILAVFSLLLRRAPR
modifications: Pyrococcus horikoshii EGPh W273Y
B2: EGPh(W273F): comparative mutant of EGPh, tryptophan substituted with phenyl alanine, SEQ ID NO: 50 (protein)
chain: B1 chain with Y273F
modifications: Pyrococcus horikoshii EGPh W273F
B3: EGSh Wild-type: Staphylothermus hellenicus-derived endoglucanase, SEQ ID NO: 19, parent endoglucanase (protein)
chain: MPARTRIACAVILLLVFLALYIAWPVEGSFLKQQPYNELRGRVLGSNIQIPKDHIPYYHIVNGTIYMDDKLIHLFGVSWFGFELPDHIVYGLWARNWKDILKDIKEMGFNAIRLPFCHESITPGTKPVPGRISYSLNPDLRNLTSLEIMEKIISYANELNIFVLLDYHRIGCRYIEPLWYTDNFSEEQYIKDWVFLAQKFGKYPNVIGADIKNEPHDSASWGTGDNKTDFRLFAERVGQAILQVAPHWLIFIEGVQYTHVPEIDGRNPYSCFWGENLMGVKDYPVRLPKDKIVYSPHVYGPSVYNMPYFNDPEFPRNLPKIWELHFGYLKELGYAIVIGEWGGRYVGKDKVWQDAFADWLIQKGIYDFFYWCLNPESGDTGGIFKSDWRTVNQDKLNLIHRIINAASQAQASTISGKHDWKTYLVLIAPTLLPVLILVILVLLIIKRRYTKKQ
modifications: Staphylothermus hellenicus EGSh
B4: EGSh Mutant: mutant EGSh, SEQ ID NO: 20; residue corresponding to 273rd tryptophan substituted with alanine (protein)
chain: B3 chain with W273A
modifications: Staphylothermus hellenicus EGSh W273A
notes: residue corresponding to 273rd tryptophan substituted with alanine

Key:
[1] = Activity to degrade phosphoric acid swollen cellulose; assay type: biochemical
Protocol: The term “identity” refers to the percentage of amino acid residues identical to and amino acid residues analogous to the other amino acid residues in all the amino acid residues overlapped when an optimum alignment is performed by introducing gaps or no gaps into two amino acid sequences and then aligning the two amino acid sequences. Such an identity can be found using a method known by persons skilled in the art, sequence analysis software, and the like (a known algorithm such as BLAST or FASTA). The term “endoglucanase activity” is as defined above and can be determined by adding an enzyme solution to a substrate solution of phosphoric acid swollen cellulose that has been dissolved in 50 mM acetic acid-sodium acetate buffer (pH 5.2) or the like, performing 1 hour of reaction at 30° C. to 85° C., stopping the reaction by changing the pH if necessary, and then determining the concentration of glucose in the reaction solution using a glucose determination kit, for example.
The mutants obtained in Comparative Example 1 were compared in terms of activity by a technique similar to that in Example 3. The concentration (g/L) of glucose generated by each parent endoglucanase under the above reaction conditions was determined to be 100%.

[2] = Saccharification of lignocellulose 3 with Celluclast and endoglucanase; assay type: biochemical, Rice straw; settings: 5 wt % Lignocellulose 3, pH 5.2, 50° C., 24 hours; 1.0 mg/mL cellulase + 0.1 mg/mL endoglucanase
Protocol: (§1) Rice straw was used as cellulose. The cellulose was immersed in water, and then autoclaved with agitation at 180° C. for 20 minutes (Nitto Koatsu Co. Ltd.). Pressure at this time was 10 MPa. After treatment, a solution component (hereinafter, referred to as “hydrothermally treated solution”) and the treated biomass component were subjected to solid-liquid separation by centrifugation (3000 G). The thus treated biomass component was used as lignocellulose 3 for the following examples.
(§2) The changes in the amount of glucose generated when the enzyme composition had been caused to act on lignocellulose substrates were compared. The substrates were prepared by suspending 5 wt % lignocelluloses (1 to 3) (prepared in Reference Example 3) in 50 mM acetate buffer (pH5.2). Reactions were performed at 50° C. for 24 hours. The concentrations of the generated glucose were measured after adequate sampling. As a filamentous bacterium-derived cellulase mixture, commercially available Trichoderma reesei-derived cellulase (Celluclast, Sigma) was used. As endoglucanases, the mutant endoglucanases prepared in Example 2 and the wild-type endoglucanases prepared in Reference Example 1 were separately used. The following quantities of enzymes were added: 1.0 mg/mL cellulase, and 0.1 mg/mL endoglucanase (in an amount one tenth that of the cellulase).

[3] = Saccharification of lignocellulose 2 with Celluclast and endoglucanase; assay type: biochemical, Rice straw; settings: 5 wt % Lignocellulose 2, pH 5.2, 50° C., 24 hours; 1.0 mg/mL cellulase + 0.1 mg/mL endoglucanase
Protocol: (§3) Rice straw was used as cellulose. Cellulose was immersed in a 1% aqueous sulfuric acid solution, and then autoclaved for 30 minutes at 150° C. (Nitto Koatsu Co. Ltd.). After treatment, the resultant was subjected to solid-liquid separation into an aqueous sulfuric acid solution (hereinafter, referred to as “dilute-sulfuric-acid-treated solution”) and cellulose treated with sulfuric acid. Next, the cellulose treated with sulfuric acid was mixed and agitated with the dilute-sulfuric-acid-treated solution so that the solid content concentration was 10 wt %. Then the mixture was adjusted to around pH 5 using sodium hydroxide. The resultant was used as lignocellulose 2 for the following examples.
as §2

[4] = Inhibition experiment with vanillin: degradation of phosphoric acid swollen cellulose; assay type: biochemical; settings: enzyme 0.5 μM, 1 hour, 50° C., parent at 0 mM = 100%
Protocol: (§6) This substance was diluted using buffer and water to obtain a 2 wt % mixture so that the final concentration of sodium acetate was 50 mM (pH 5.2). This was designated as phosphoric acid swollen cellulose and used for the following examples.
The activity of the wild-type and the mutant endoglucanases to degrade phosphoric acid swollen cellulose in the presence of vanillin was measured. 1% phosphoric acid swollen cellulose/50 mM acetate buffer (pH 5.2) was used as a substrate. Vanillin (Sigma Aldrich) was added at final concentrations of 0, 5, 10, and 15 mM. The enzymes prepared in Reference Example 1 and Example 2 were added at a final concentration of 0.5 μM, followed by 1 hour of enzymatic reaction at 50° C.

[5] = Saccharification of lignocellulose 1 with Celluclast and endoglucanase; assay type: biochemical, Rice straw; settings: 5 wt % Lignocellulose 1, pH 5.2, 50° C., 24 hours; 1.0 mg/mL cellulase + 0.1 mg/mL endoglucanase
Protocol: (§4) Rice straw was used as cellulose. The cellulose was added to a small reactor (Taiatsu Techno Corporation, TVS-N2 (30 ml)), and then cooled with liquid nitrogen. An ammonia gas was fed to the reactor, thereby completely immersing the sample in the liquid ammonia. The reactor was closed using its lid, and then left to stand at room temperature for 15 minutes. Subsequently, treatment was performed for 1 hour in an oil bath at 150° C. After treatment, the reactor was removed from the oil bath, an ammonia gas leak was immediately performed within a draft chamber. The reactor was vacuumed using a vacuum pump to 10 Pa for drying. The resultant was used as lignocellulose 1 in the following examples.
as §2

[6] = Saccharification of lignocellulose 3 with Trichoderma reesei culture solution and endoglucanase; assay type: biochemical, Rice straw; settings: Lignocellulose 3, 24 hours; cellulase 1.0 mg/mL + endoglucanase 0.1 mg/mL + β-glucosidase (Novozyme 188) 0.01 mg/mL
Protocol: as §1, §2
(§5) Lignocelluloses (1-3) prepared in Reference Example 3 were used as substrates. The Trichoderma reesei culture solution prepared in Reference Example 4 was used as a filamentous bacterium-derived cellulase mixture. Lignocelluloses (1-3) were hydrolyzed in a manner similar to that in Example 7, except for the quantities of the enzymes added: cellulase (1.0 mg/mL); endoglucanase (0.1 mg/mL (in an amount one tenth that of the cellulase); and β-glucosidase (Novozyme 188) (0.01 mg/mL (in an amount one hundredth that of the cellulase).

[7] = Saccharification of lignocellulose 1 with Trichoderma reesei culture solution and endoglucanase; assay type: biochemical, Rice straw; settings: Lignocellulose 1, 24 hours; cellulase 1.0 mg/mL + endoglucanase 0.1 mg/mL + β-glucosidase (Novozyme 188) 0.01 mg/mL
Protocol: as §4, §2, §5

[8] = Inhibition experiment with ferulic acid: degradation of phosphoric acid swollen cellulose; assay type: biochemical; settings: enzyme 0.5 μM, 1 hour, 50° C., parent at 0 mM = 100%
Protocol: as §6
The activity of the wild-type and the mutant endoglucanases to degrade phosphoric acid swollen cellulose was measured in the presence of ferulic acid. 1% phosphoric acid swollen cellulose/50 mM acetate buffer (pH 5.2) was used as a substrate. Ferulic acid (Sigma Aldrich) was added at final concentrations of 0, 5, 10, and 15 mM. The enzymes prepared in Reference Example 1 and Example 2 were each added at a final concentration of 0.5 μM, followed by 1 hour of enzymatic reaction at 50° C.

[9] = Saccharification of lignocellulose 2 with Trichoderma reesei culture solution and endoglucanase; assay type: biochemical, Rice straw; settings: Lignocellulose 2, 24 hours; cellulase 1.0 mg/mL + endoglucanase 0.1 mg/mL + β-glucosidase (Novozyme 188) 0.01 mg/mL
Protocol: as §3, §2, §5

[10] = Comparative Example 2, technique similar to Example 3, parent endoglucanase = 100%
[11] = 1% phosphoric acid swollen cellulose, pH 5.2, enzyme 0.5 μM, 1 hour, 50° C., glucose generated by each parent endoglucanase = 100%

Row | Molecule | Relative activity [1, 10] [%] | Relative activity to degrade phosphoric acid swollen cellulose ([4]; vanillin 0 mM) [%] | Relative activity to degrade phosphoric acid swollen cellulose ([4]; vanillin 5 mM) [%] | Relative activity to degrade phosphoric acid swollen cellulose ([4]; vanillin 10 mM) [%] | Relative activity to degrade phosphoric acid swollen cellulose ([4]; vanillin 15 mM) [%] | Relative activity [1, 11] [%] | Relative activity to degrade phosphoric acid swollen cellulose ([8]; ferulic acid 0 mM) [%] | Relative activity to degrade phosphoric acid swollen cellulose ([8]; ferulic acid 5 mM) [%] | Relative activity to degrade phosphoric acid swollen cellulose ([8]; ferulic acid 10 mM) [%] | Relative activity to degrade phosphoric acid swollen cellulose ([8]; ferulic acid 15 mM) [%] | also measured
1 | B1 | 100 |  |  |  |  |  |  |  |  |  | 
2 | B2 | 100 |  |  |  |  |  |  |  |  |  | 
3 | B3 |  | 100 | 40 | 35 | 30 | 100 | 100 | 65 | 55 | 50 | Concentration of glucose generated, Celluclast + Wild-type [2]: 12 g/L; Concentration of glucose generated, Celluclast + Wild-type [3]: 11 g/L; Concentration of glucose generated, Celluclast + Wild-type [5]: 12 g/L; Concentration of glucose generated, Culture solution + Wild-type [6]: 9 g/L; Concentration of glucose generated, Culture solution + Wild-type [7]: 9 g/L; Concentration of glucose generated, Culture solution + Wild-type [9]: 8 g/L
4 | B4 |  | 100 | 90 | 85 | 80 | 100 | 100 | 95 | 85 | 80 | Concentration of glucose generated, Celluclast + Mutant [2]: 15 g/L; Concentration of glucose generated, Celluclast + Mutant [3]: 15 g/L; Concentration of glucose generated, Celluclast + Mutant [5]: 14 g/L; Concentration of glucose generated, Culture solution + Mutant [6]: 12 g/L; Concentration of glucose generated, Culture solution + Mutant [7]: 11 g/L; Concentration of glucose generated, Culture solution + Mutant [9]: 12 g/L
